Test results: patent US20100047228

Molecular target: delta-plasminogen
Sequence (chain, as listed by the source mutant): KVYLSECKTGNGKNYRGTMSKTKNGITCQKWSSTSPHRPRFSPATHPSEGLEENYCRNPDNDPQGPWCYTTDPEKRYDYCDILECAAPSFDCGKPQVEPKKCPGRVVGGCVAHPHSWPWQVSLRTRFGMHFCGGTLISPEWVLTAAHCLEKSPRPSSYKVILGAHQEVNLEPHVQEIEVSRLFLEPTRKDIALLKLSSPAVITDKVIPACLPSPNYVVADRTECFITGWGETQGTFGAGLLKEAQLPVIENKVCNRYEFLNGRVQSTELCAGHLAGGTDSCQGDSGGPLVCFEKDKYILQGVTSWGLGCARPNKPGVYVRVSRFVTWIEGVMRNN

B1: tissue Plasminogen Activator (protein)
chain: SYQVICRDEKTQMIYQQHQSWLRPVLRSNRVEYCWCNSGRAQCHSVPVKSCSEPRCFNGGTCQQALYFSDFVCQCPEGFAGKCCEIDTRATCYEDQGISYRGTWSTAESGAECTNWNSSALAQKPYSGRRPDAIRLGLGNHNYCRNPDRDSKPWCYVFKAGKYSSEFCSTPACSEGNSDCYFGNGSAYRGTHSLTESGASCLPWNSMILIGKVYTAQNPSAQALGLGKHNYCRNPDGDAKPWCHVLKNRRLTWEYCDVPSCSTCGLRQYSQPQFRIKGGLFADIASHPWQAAIFAKHRRSPGERFLCGGILISSCWILSAAHCFQERFPPHHLTVILGRTYRVVPGEEEQKFEVEKYIVHKEFDDDTYDNDIALLQLKSDSSRCAQESSVVRTVCLPPADLQLPDWTECELSGYGKHEALSPFYSERLKEAHVRLYPSSRCTSQHLLNRTVTDNMLCAGDTRSGGPQANLHDACQGDSGGPLVCLNDGRMTLVGIISWGLGCGQKDVPGVYTKVTNYLDWIRDNMRP
  conversion of one-chain delta-plasminogen into two-chain delta-plasmin (reduced SDS-PAGE): delta-plasminogen indeed can be activated by all three plasminogen activators
